Measurements as given in patent publication US5223421A, “Identification of methionine Nα-acetyltransferase” (The General Hospital Corporation, priority 1990, dated 1993).

Legend:
[1] = molecular target: T1, AAA1 N^α -acetyltransferase (N^α -AT) (Saccharomyces cerevisiae, UniProt P07347+P12945); assay: Relative activity of N^α -AT for N^α -acetylation of synthetic peptides; type: biochemical
T1 sequence (P12945 2-854 limits assumed): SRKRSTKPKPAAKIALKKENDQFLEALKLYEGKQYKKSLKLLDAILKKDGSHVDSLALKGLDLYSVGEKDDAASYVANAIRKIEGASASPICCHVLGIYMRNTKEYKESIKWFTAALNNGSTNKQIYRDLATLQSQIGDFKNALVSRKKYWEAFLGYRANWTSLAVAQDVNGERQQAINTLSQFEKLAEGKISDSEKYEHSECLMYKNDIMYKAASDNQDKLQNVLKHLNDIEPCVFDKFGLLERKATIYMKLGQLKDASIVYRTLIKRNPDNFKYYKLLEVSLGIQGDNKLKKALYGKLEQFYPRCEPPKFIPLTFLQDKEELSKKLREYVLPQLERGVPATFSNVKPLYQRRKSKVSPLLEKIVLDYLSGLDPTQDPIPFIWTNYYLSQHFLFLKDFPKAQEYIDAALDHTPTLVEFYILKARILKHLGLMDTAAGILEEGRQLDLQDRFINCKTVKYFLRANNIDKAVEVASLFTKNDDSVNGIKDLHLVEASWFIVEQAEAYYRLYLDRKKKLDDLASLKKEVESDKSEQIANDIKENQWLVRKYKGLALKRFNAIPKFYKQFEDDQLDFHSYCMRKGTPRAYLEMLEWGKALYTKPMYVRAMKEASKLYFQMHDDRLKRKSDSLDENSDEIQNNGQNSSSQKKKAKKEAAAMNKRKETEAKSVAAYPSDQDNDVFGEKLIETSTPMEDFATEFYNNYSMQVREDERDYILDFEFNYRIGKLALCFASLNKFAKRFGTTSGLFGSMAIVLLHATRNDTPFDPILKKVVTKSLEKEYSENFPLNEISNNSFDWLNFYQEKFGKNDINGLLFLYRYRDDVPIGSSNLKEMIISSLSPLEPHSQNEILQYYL
T1 sequence (P07347 1-238): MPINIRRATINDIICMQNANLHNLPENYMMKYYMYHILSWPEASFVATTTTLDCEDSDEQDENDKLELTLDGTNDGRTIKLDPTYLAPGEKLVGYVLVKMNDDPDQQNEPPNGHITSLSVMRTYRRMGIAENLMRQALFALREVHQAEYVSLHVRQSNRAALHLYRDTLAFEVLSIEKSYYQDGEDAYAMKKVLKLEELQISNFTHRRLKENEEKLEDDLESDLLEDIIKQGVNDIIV
Description: (§1) N^α -acetylt[…] was determined as previously described [Lee et al., J. Biol. Chem. 263:14948-14955 (1988)]. Aliquots of the lysate or chromatographic fractions were added to 1.5 ml Eppendorf tubes containing a reaction mixture of 50 mM HEPES, pH 7.4, 150 mM KCl, 1 mM DTT, 25 μM [^3 H] acetyl coenzyme A (0.5 μCi) and 50 μM synthetic peptide with an adjusted final volume of 100 μl. The assay mixture was incubated at 30° C. for 30 min. The reaction was stopped by adding 17 μl of 0.5M acetic acid and chilled in an ice bath. The reaction samples were filtered through SP membrane discs (Cuno) (previously pre-swollen in 0.5M acetic acid), and then washed three times with 1 ml of 0.5M acetic acid on a Millipore 1225 sampling manifold. The partially dried membranes were placed in scintillation cocktail and counted with a Beckman LS 3801 scintillation counter. One unit of activity was defined as the amount of enzyme able to transfer 1 pmol of [^3 H] acetyl group from [^3 H] acetyl coenzyme A to synthetic peptide per min under standard enzyme assay conditions defined above.
(§2) In order to compare the relative specificity and activity of the methionine N^α -acetylt[…] (M-N^α -AT) of the present invention with the specificity and activity of the AAA1 N^α -acetyltransferase (N^α -AT) of Lee, F.-J. S., et al., J. Bacteriol. 171, (1989), U.S. Patent Application of John A. Smith, and Fang-Jen S. Lee, filed Oct. 25, 1989, entitled "ISOLATION OF STRAINS OF SAC[…] ALTERED N^α -ACETYLT[…]" (which references have been incorporated herein by reference) synthetic peptides were prepared. These peptides were assessed for their ability to serve as substrates for the two enzymes. In Table 6, the effect of the amino terminal amino acid on activity is investigated; in Table 7, the effect of the penultimate amino terminal amino acid on activity is investigated.

[2] = test system: methionine N^α -acetyltransferase (M-N^α -AT); assay: Relative activity of M-N^α -AT for N^α -acetylation of synthetic peptides; type: biochemical, Saccharomyces cerevisiae; set-up: tested at 50 µM; conditions: Table 7, influence of the penultimate amino terminal residue
Description: as §1, §2

[3] = Table 6, influence of the amino terminal residue
[4] = Table 7, influence of the penultimate amino terminal residue

SIPETQKGVIFYESHGKLEYKDIP (SIPETQKGVIFYESHGKLEYKDIP) [Alcohol dehydrogenase (1-24) (Yeast)]
Activity (%) (mean activity ± S.D.) N^a -AT [1, 3]: 102 ± 5%
Activity (%) (mean activity ± S.D.) N^a -AT [1, 4]: 102 ± 5%
Activity (%) (mean activity ± S.D.) M-N^a -AT [2]: 0%

SYSMEHFRWGKPVGKKRRPVKVYP
Activity (%) (mean activity ± S.D.) N^a -AT [1, 3]: 100 ± 5%
Activity (%) (mean activity ± S.D.) N^a -AT [1, 4]: 100 ± 5%
Activity (%) (mean activity ± S.D.) M-N^a -AT [2]: 0%
